Measurements from PMC5268470.

Tests used:
[1] = [3H]-taurocholate uptake, Huh-7; conditions: glycan lost; control: NTCP-WT
[2] = cell surface biotinylation, immunoblot; conditions: glycan lost; control: NTCP-WT
[3] = anti-HA confocal immunofluorescence, HepG2; conditions: glycan lost; control: NTCP-WT
[4] = Myrcludex B-FITC cell-surface fluorescence, plate reader; conditions: glycan lost; control: NTCP-WT
[5] = anti-HA IP-immunoblot, ImageJ quantification; conditions: glycan lost; control: NTCP-WT
[6] = [3H]-taurocholate uptake, HepG2, untagged NTCP; conditions: glycan lost; control: untagged NTCP-WT
[7] = [3H]-taurocholate uptake, 2 min, HepG2; conditions: glycan lost; control: NTCP-WT
[8] = HBeAg ELISA, 3 days post infection, HepG2; conditions: glycan lost; control: NTCP-WT
[9] = intracellular cccDNA qPCR, 3 days post infection, HepG2; conditions: glycan lost; control: NTCP-WT

Row | Protein | other: transport activity [1] | localisation_or_trafficking [2] | localisation_or_trafficking [3] | localisation_or_trafficking [4] | expression_or_secretion [5] | other: transport activity [6] | other: transport activity [7] | other: HBV receptor activity (infection) [8] | other: HBV receptor activity (infection) [9]
1 | Na+-taurocholate cotransporting polypeptide (NTCP): NTCP-N5,11Q (protein) parent chain: MEAHNASAPFNFTLPPNFGKRPTDLALSVILVFMLFFIMLSLGCTMEFSKIKAHLWKPKGLAIALVAQYGIMPLTAFVLGKVFRLKNIEALAILVCGCSPGGNLSNVFSLAMKGDMNLSIVMTTCSTFCALGMMPLLLYIYSRGIYDGDLKDKVPYKGIVISLVLVLIPCTIGIVLKSKRPQYMRYVIKGGMIIILLCSVAVTVLSAINVGKSIMFAMTPLLIATSSLMPFIGFLLGYVLSALFCLNGRCRRTVSMETGCQNVQLCSTILNVAFPPEVIGPLFFFPLLYMIFQLGEGLLLIAIFWCYEKFKTPKDKTKMIYTAATTEETIPGALGNGTYKGEDCSPCTA | decreases | abolishes | changes | decreases | decreases |  |  |  | 
2 | Na+-taurocholate cotransporting polypeptide (NTCP): untagged NTCP-N5,11Q (protein) parent chain: MEAHNASAPFNFTLPPNFGKRPTDLALSVILVFMLFFIMLSLGCTMEFSKIKAHLWKPKGLAIALVAQYGIMPLTAFVLGKVFRLKNIEALAILVCGCSPGGNLSNVFSLAMKGDMNLSIVMTTCSTFCALGMMPLLLYIYSRGIYDGDLKDKVPYKGIVISLVLVLIPCTIGIVLKSKRPQYMRYVIKGGMIIILLCSVAVTVLSAINVGKSIMFAMTPLLIATSSLMPFIGFLLGYVLSALFCLNGRCRRTVSMETGCQNVQLCSTILNVAFPPEVIGPLFFFPLLYMIFQLGEGLLLIAIFWCYEKFKTPKDKTKMIYTAATTEETIPGALGNGTYKGEDCSPCTA |  |  |  |  |  | decreases |  |  | 
3 | Na+-taurocholate cotransporting polypeptide (NTCP): NTCP-N11Q (protein) parent chain: MEAHNASAPFNFTLPPNFGKRPTDLALSVILVFMLFFIMLSLGCTMEFSKIKAHLWKPKGLAIALVAQYGIMPLTAFVLGKVFRLKNIEALAILVCGCSPGGNLSNVFSLAMKGDMNLSIVMTTCSTFCALGMMPLLLYIYSRGIYDGDLKDKVPYKGIVISLVLVLIPCTIGIVLKSKRPQYMRYVIKGGMIIILLCSVAVTVLSAINVGKSIMFAMTPLLIATSSLMPFIGFLLGYVLSALFCLNGRCRRTVSMETGCQNVQLCSTILNVAFPPEVIGPLFFFPLLYMIFQLGEGLLLIAIFWCYEKFKTPKDKTKMIYTAATTEETIPGALGNGTYKGEDCSPCTA |  | no change | no change | decreases |  |  | no change | no change | no change
4 | Na+-taurocholate cotransporting polypeptide (NTCP): NTCP-N5Q (protein) parent chain: MEAHNASAPFNFTLPPNFGKRPTDLALSVILVFMLFFIMLSLGCTMEFSKIKAHLWKPKGLAIALVAQYGIMPLTAFVLGKVFRLKNIEALAILVCGCSPGGNLSNVFSLAMKGDMNLSIVMTTCSTFCALGMMPLLLYIYSRGIYDGDLKDKVPYKGIVISLVLVLIPCTIGIVLKSKRPQYMRYVIKGGMIIILLCSVAVTVLSAINVGKSIMFAMTPLLIATSSLMPFIGFLLGYVLSALFCLNGRCRRTVSMETGCQNVQLCSTILNVAFPPEVIGPLFFFPLLYMIFQLGEGLLLIAIFWCYEKFKTPKDKTKMIYTAATTEETIPGALGNGTYKGEDCSPCTA |  | no change | no change | decreases |  |  | no change | no change | no change
